Data as given in patent publication US20250011391A1, “ULTRA LIGHT-SENSITIVE NEUROPSIN-BASED OPTOGENETIC TOOL FOR ACTIVATING G q-COUPLED SIGNALING AND/OR ACTIVATING CELLS” (GENANS BIOTECHNOLOGY CO., LTD, priority 2021, published 2025).

Tested on: GABA neurons in the zona incerta (ZI) of VGAT-Cre mice
Assay: Food-foraging behavior task
Format: in vivo, mouse
Settings: vs EGFP-expressing mice
Procedure: Finally, the utility of cOpn5-mediated optogenetics for modulating animal behavior is assessed. The lateral hypothalamus (LH) is a brain center with known functions in reward processing and feeding behaviors^54,55. cOpn5 is expressed in the LH GABAergic neurons of VGAT-Cre mice and implanted optical fibers to deliver light pulses into the LH of freely behaving mice (FIG. 8g). […] Electrophysiological recordings on LH and ZI cOpn5-expressing neurons are performed to characterize the response profiles. The injection sites and placement of optical fibers are confirmed by whole brain slices (FIG. 10a-c). […] Thus, cOpn5 is effective for rapidly, accurately, and reversibly modulating animal behavioral states.
i, Schematic diagram of the experimental setup for food foraging behavior. High-fat food pellets were used. cOpn5-EGFP was expressed in GABAergic neurons within the zonal incerta (ZI) of VGAT-Cre mice. EGFP was expressed as a control.
j, Summary of cOpn5-mediated food foraging behaviors. Foraging time percentage was calculated upon receiving light stimulation until the mouse found the hidden food. ****P<0.0001; n=6 mice; unpaired t test. Error bars indicate S.E.M.

B1: cOpn5: Chicken (Gallus gallus) Opn5 (neuropsin) ortholog, SEQ ID NO:1, GenBank NM_001130743.1 (protein, listed as Gallus lafayetii)
chain: MSGMASDCNSSSQEEYLPHYVQQEDPFASKLSREADIIAGFYLTVIGILSTLGNGYVIFMSSKRKKKLRPAEIMTVNLAVCDLGISVVGKPFSIISFFSHRWIFGWMGCRWYGWAGFFFGCGSLITMTAVSLDRYLKICHLAYGTWLKRHHAFICLALIWAYATFWATVPFAGVGSYAPEPFGTSCTLDWWLAQASVAGQAFVLSILFFCLLFPTAVIVFSYVKIILKVKSSTKEVAHYDTRIQNSHILEMKLTKVAMLICAGFLIAWIPYAVVSVWSAFGQPDSVPIQFSVVPTLLAKSAAMYNPIIYQVIDCKFACCRSGGPKTLQKKSSLKESRMYTLSSHRDSAALSGTQLEV
For B1, the “time of foraging high fat food pellets on repeated light stimulation” value was “significantly increase in the time of foraging”.
